Source: patent US20050282743A1, “Molecular interactions in cells” (Arbor Vita Corporation, priority 2001, published 2005)
Changes are numbered by the printed parent chain. Blank lines part the entries; values can stand above or below the binder they belong to.

Experiments:
[1] = molecular target: GST-PSD95 PDZ domains 1, 2, 3 (Homo sapiens), P78352; test: G assay competition vs 10 uM biotin-CD95 20-mer; competitor 50 uM
[2] = molecular target: GST-PSD95 PDZ domains 1, 2, 3 (Homo sapiens), P78352; test: G assay competition vs 20 uM biotin-CD46 20-mer; competitor 50 uM
[3] = molecular target: GST-PSD95 PDZ domains 1, 2, 3 (Homo sapiens), P78352; test: G assay competition vs 10 uM biotin-KV1.3 20-mer; competitor 50 uM
[4] = molecular target: GST-PSD95 PDZ domains 1, 2, 3 (Homo sapiens), P78352; test: G assay competition vs 20 uM biotin-CLASP-2 20-mer; competitor 50 uM
[5] = molecular target: T1, GST-BAI-1 Associated Protein PDZ domain 3 (Homo sapiens (Human)), Q96QZ7; test: G' assay; also: key of the grades not given here
T1 sequence (Q96QZ7 other isoform, or with tags, fused parts or gaps): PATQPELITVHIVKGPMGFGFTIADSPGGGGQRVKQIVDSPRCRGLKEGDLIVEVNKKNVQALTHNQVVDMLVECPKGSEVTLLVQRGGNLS

[6] = molecular target: T2, GST-FLJ 10324 PDZ domain 1 [GST: P08515]; test: G' assay; also: key of the grades not given here
T2 chain: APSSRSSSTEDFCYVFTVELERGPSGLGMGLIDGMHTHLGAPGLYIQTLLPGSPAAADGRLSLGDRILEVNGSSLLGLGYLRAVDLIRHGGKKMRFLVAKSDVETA

[7] = molecular target: T3, GST-HEMBA 1003117 PDZ domain 1 (Homo sapiens (Human)), Q96JH8; test: G' assay; also: key of the grades not given here
T3 chain: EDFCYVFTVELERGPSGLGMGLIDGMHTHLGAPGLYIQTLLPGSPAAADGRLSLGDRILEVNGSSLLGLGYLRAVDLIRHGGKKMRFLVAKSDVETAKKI

[8] = molecular target: GST-KIAA0316 PDZ domain 1 (Homo sapiens (Human)), Q14CM0; test: G' assay; also: key of the grades not given here
GST-KIAA0316 PDZ domain 1 (Homo sapiens (Human)), Q14CM0, sequence (Q14CM0 72-159): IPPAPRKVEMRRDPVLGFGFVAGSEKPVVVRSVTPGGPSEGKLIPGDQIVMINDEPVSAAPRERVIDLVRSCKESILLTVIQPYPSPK

[9] = molecular target: T4, GST-KIAA0807(S) PDZ domain 1 (Homo sapiens (Human)), Q6P0Q8; test: G' assay; also: key of the grades not given here
T4 chain: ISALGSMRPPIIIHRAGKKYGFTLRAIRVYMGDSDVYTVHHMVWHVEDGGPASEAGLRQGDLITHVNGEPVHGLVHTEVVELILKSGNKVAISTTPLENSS

[10] = molecular target: T5, GST-KIAA1634 PDZ domain 2 (Homo sapiens (Human)), Q5TCQ9; test: G' assay; also: key of the grades not given here
T5 chain: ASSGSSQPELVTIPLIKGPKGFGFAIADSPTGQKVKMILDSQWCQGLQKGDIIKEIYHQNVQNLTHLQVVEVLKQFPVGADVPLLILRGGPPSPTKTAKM

[11] = molecular target: GST-KIAA807 [GST: P08515]; test: G' assay; also: key of the grades not given here
GST-KIAA807 [GST: P08515], sequence (P08515 whole entry, the tested form may be a part): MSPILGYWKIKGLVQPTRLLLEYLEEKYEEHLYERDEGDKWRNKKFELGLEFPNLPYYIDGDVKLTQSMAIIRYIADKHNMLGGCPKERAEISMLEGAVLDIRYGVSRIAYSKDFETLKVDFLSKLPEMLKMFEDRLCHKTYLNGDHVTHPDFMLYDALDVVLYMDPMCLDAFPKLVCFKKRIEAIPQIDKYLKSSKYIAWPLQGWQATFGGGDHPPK

[12] = molecular target: T6, GST-MINT1 PDZ domain 2 (Mus musculus (Mouse)), B2RUJ5; test: G' assay; also: key of the grades not given here
T6 chain: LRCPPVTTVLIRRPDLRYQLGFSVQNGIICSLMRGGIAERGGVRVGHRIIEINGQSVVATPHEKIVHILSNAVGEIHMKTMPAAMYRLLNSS

[13] = molecular target: T7, GST-MINT1 PDZ domains 1, 2, Q02410; test: G' assay; also: key of the grades not given here
T7 chain: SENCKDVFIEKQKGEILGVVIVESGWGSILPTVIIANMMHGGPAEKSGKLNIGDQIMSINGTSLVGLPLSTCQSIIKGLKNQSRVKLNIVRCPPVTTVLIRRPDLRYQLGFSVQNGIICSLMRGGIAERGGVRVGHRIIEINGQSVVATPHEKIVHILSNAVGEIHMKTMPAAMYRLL

[14] = molecular target: GST-PIST PDZ domain 1 (Mus musculus (Mouse)), Q8BH60; test: G' assay; also: key of the grades not given here
[15] = molecular target: T8, GST-PTPL1 PDZ domain 2 (Homo sapiens (Human)), Q12923; test: G' assay; also: key of the grades not given here
T8 chain: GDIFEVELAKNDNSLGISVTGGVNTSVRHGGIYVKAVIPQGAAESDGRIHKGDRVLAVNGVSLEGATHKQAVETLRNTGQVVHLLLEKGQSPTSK

[16] = molecular target: T9, GST-PTPL1 PDZ domain 4 (Homo sapiens (Human)), Q12923; test: G' assay; also: key of the grades not given here
T9 chain: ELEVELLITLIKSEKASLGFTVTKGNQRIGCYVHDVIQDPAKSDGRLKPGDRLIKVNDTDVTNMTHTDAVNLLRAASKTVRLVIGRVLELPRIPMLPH

[17] = molecular target: T1, GST-BAI-1 Associated Protein PDZ domain …; test: G assay titration, PDZ 0.5 ug/ml
[18] = molecular target: T8, GST-PTPL1 PDZ domain 2 (Homo sapiens …); test: G assay titration, PDZ 0.5 ug/ml
[19] = molecular target: T10, GST-APXL-1 PDZ domain 1 (Homo sapiens (Human)), Q13796; test: G' assay; also: key of the grades not given here
T10 chain: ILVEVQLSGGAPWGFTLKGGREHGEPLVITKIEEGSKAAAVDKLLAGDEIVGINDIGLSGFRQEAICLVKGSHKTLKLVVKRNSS

[20] = molecular target: T11, GST-EZRIN Binding Protein 50 PDZ domain 1 (Homo sapiens (Human)), O14745; test: G' assay; also: key of the grades not given here
T11 chain: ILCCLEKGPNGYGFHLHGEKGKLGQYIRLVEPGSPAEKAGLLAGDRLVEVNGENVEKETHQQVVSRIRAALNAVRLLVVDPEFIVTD

[21] = molecular target: T12, GST-EZRIN Binding Protein 50 PDZ domain 2 (Homo sapiens (Human)), O14745; test: G' assay; also: key of the grades not given here
T12 chain: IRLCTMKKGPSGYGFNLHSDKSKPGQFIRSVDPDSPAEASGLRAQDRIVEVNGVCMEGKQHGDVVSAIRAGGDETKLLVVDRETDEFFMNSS

[22] = molecular target: T13, GST-INADL PDZ domain 8 (Homo sapiens (Human)), Q8NI35; test: G' assay; also: key of the grades not given here
T13 chain: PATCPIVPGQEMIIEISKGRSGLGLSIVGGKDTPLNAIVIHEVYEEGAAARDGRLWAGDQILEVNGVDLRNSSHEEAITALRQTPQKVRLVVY

[23] = molecular target: T14, GST-KIAA0973 PDZ domain 1 (Homo sapiens (Human)), Q9Y2H9; test: G' assay; also: key of the grades not given here
T14 chain: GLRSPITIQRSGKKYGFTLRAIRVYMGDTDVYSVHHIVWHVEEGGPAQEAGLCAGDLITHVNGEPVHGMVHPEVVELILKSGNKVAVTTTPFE

[24] = molecular target: T15, GST-KIAA1526 PDZ domain 1 (Homo sapiens (Human)), Q9P202; test: G' assay; also: key of the grades not given here
T15 chain: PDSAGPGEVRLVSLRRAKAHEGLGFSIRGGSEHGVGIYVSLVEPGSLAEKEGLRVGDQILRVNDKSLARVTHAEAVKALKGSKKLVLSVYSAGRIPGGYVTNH

[25] = molecular target: T16, GST-MUPP1 PDZ domain 10 (Homo sapiens (Human)), O75970; test: G' assay; also: key of the grades not given here
T16 chain: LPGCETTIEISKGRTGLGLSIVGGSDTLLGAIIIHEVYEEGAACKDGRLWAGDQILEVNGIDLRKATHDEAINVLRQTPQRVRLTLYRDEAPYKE

[26] = molecular target: T17, GST-MUPP1 PDZ domain 13 (Homo sapiens (Human)), O75970; test: G' assay; also: key of the grades not given here
T17 chain: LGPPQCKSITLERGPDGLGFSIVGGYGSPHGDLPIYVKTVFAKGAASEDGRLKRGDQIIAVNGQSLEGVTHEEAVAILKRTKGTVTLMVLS

[27] = molecular target: T18, GST-Outer Membrane PDZ domain 1 (Homo sapiens (Human)), P57105; test: G' assay; also: key of the grades not given here
T18 chain: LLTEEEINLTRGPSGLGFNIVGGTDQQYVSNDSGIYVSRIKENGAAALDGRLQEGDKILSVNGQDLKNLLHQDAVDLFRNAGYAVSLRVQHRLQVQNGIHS

[28] = molecular target: T19, GST-PDZK1 PDZ domains 2, 3, 4, Q5T2W1; test: G' assay; also: key of the grades not given here
T19 chain: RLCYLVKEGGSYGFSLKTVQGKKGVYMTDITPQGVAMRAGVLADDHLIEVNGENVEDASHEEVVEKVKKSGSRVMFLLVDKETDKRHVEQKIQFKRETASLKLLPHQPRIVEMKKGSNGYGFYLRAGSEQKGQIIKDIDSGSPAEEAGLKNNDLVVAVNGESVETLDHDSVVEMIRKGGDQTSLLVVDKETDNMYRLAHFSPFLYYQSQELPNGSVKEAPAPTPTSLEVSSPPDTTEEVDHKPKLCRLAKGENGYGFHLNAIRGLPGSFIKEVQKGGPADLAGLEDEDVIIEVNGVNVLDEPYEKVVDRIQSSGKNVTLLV

[29] = molecular target: T20, GST-Shank 1 PDZ domain 1 (Homo sapiens (Human)), Q9UPX8; test: G' assay; also: key of the grades not given here
T20 chain: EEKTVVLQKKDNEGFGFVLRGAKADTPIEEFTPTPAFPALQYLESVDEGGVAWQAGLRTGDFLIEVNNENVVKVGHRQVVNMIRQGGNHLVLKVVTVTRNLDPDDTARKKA

[30] = molecular target: T21, GST-Shank 3 PDZ domain 1 (human (hypothetical, computer cloned)), Q9BYB0; test: G' assay; also: key of the grades not given here
T21 chain: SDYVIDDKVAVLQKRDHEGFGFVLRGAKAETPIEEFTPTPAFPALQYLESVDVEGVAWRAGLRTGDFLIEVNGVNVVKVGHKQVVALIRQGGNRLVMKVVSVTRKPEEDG

[31] = molecular target: T22, GST-Syntrophin gamma 2 PDZ domain 1 (Homo sapiens (Human)), Q9NY99; test: G' assay; also: key of the grades not given here
T22 chain: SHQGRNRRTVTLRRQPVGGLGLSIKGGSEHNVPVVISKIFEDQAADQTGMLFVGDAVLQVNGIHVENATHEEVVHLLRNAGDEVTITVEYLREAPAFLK

[32] = molecular target: T23, GST-ZO-2 PDZ domain 1 (Homo sapiens (Human)), Q9UDY2; test: G' assay; also: key of the grades not given here
T23 chain: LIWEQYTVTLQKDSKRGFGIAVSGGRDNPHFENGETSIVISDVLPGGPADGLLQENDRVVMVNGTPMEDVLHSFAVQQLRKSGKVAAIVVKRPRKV

[33] = molecular target: T24, GST-rat SHANK 3 PDZ domain 1 (rat), Q9JLU4; test: G' assay; also: key of the grades not given here
T24 chain: T21 chain with V11I, R59K, A86G, G110S

GST-PSD95 PDZ domains 1, 2, 3 (Homo sapiens), P78352, sequence (P78352 62-395): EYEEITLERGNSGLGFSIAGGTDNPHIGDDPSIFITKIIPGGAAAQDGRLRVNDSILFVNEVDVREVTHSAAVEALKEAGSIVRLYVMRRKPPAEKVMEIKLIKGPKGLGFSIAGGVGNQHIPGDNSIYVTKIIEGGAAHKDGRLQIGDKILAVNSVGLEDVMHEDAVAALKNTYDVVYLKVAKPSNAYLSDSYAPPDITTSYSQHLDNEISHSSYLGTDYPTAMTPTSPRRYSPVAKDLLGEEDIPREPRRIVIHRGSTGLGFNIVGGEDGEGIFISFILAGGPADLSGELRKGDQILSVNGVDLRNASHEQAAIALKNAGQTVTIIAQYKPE

% binding of labelled 20-mer [1]: 75%
% binding of labelled 20-mer [2]: 100%
% binding of labelled 20-mer [3]: 87%
% binding of labelled 20-mer [4]: 92%
Binder: RNEIQSLV (modifications not checked) [unlabeled 8 amino acid peptide corresponding to the C-terminus of CD95]

Classification [5]: 4 A450 class
Classification [6]: 2 A450 class
Classification [7]: 1 A450 class
Classification [8]: 1 A450 class
Classification [9]: 1 A450 class
Classification [10]: 5 A450 class
Classification [11]: 1 A450 class
Classification [12]: 1 A450 class
Classification [13]: 1 A450 class
Classification [14]: 1 A450 class
Classification [15]: 5 A450 class
Classification [16]: 2 A450 class
Kd [17]: 2000 nM
Kd [18]: 200 nM
Binder: DTLLLTENEGDKTEEQVSYV (modifications not checked) [serotonin receptor 5HT-2B]

The remaining lines, values behind:

Binder: MTSSSSVV (modifications not checked) [CLASP-2 8-mer]
% binding of labelled 20-mer [1]: 80%
% binding of labelled 20-mer [2]: 90%
% binding of labelled 20-mer [3]: 82%
% binding of labelled 20-mer [4]: 85%

Binder: PPATPSPRLALPAHHNATRL (modifications not checked) [Na+/Pi cotransporter 2]
Classification [19]: 1 A450 class
Classification [20]: 5 A450 class
Classification [21]: 2 A450 class
Classification [6]: 1 A450 class
Classification [22]: 1 A450 class
Classification [9]: 5 A450 class
Classification [23]: 2 A450 class
Classification [24]: 1 A450 class
Classification [11]: 5 A450 class
Classification [12]: 1 A450 class
Classification [25]: 1 A450 class
Classification [26]: 1 A450 class
Classification [27]: 1 A450 class
Classification [28]: 1 A450 class
Classification [14]: 1 A450 class
Classification [29]: 5 A450 class
Classification [30]: 5 A450 class
Classification [31]: 1 A450 class
Classification [32]: 1 A450 class
Classification [33]: 4 A450 class
